In the assay the target is T1, His-DDA3 (UniProt Q6PGN9 1-363).
T1 sequence (looked up): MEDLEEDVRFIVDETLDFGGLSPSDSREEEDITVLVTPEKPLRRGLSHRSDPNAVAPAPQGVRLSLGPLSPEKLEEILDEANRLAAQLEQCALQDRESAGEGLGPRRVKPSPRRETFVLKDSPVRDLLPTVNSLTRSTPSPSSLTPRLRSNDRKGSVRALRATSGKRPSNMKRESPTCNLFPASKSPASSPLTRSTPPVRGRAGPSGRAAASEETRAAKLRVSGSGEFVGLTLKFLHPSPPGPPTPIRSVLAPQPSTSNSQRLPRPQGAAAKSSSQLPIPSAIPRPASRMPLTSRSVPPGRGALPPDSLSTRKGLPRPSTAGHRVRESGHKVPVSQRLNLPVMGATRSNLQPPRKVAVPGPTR
The experiment in a line: pull-down.

Consider one molecule from paper PMC3647168 (Scientific Reports, 2013).

B1: GST-EB1 (natural protein, UniProt Q15691 1-268, looked up)
chain: MAVNVYSTSVTSDNLSRHDMLAWINESLQLNLTKIEQLCSGAAYCQFMDMLFPGSIALKKVKFQAKLEHEYIQNFKILQAGFKRMGVDKIIPVDKLVKGKFQDNFEFVQWFKKFFDANYDGKDYDPVAARQGQETAVAPSLVAPALNKPKKPLTSSSAAPQRPISTQRTAAAPKAGPGVVRKNPGVGNGDDEAAELMQQVNVLKLTVEDLEKERDFYFGKLRNIELICQENEGENDPVLQRIVDILYATDEGFVIPDEGGPQEEQEEY
Regarding B1, the binding result is listed as “binds”.
